Experimental findings from US10294504B2, “Mutant endoglycoceramidases with enhanced synthetic activity” (La Jolla Pharmaceutical Company, priority 2004, dated 2019) are described below.

The nature of this data set: Hydrolysis kinetics of wild-type Rhodococcus EGC using 2,4-dinitrophenyl lactoside as the substrate. The data set is classed as biochemical. As for the experimental part:
FIG. 18 illustrates a Michaelis-Menten curve for wild-type Rhodococcus EGC using 2,4-dinitrophenyl lactoside as the substrate.
FIGS. 19A-19C illustrate variation of kcat, Km, and kcat/Km with increasing detergent concentration for wild-type Rhodococcus EGC.
FIG. 20 illustrates pH rate profile for wild-type Rhodococcus EGC.
Using 2,4-dinitrophenyl lactoside as a substrate, the Rhodococcus M-777 EGC enzyme has a Km of approximately 2 mM, and a kcat of 90 min-1 (FIG. 18). The dependence of the activity on detergent concentration was also investigated. […] The dependence of kcat/Km on detergent concentration leveled off at concentrations greater than 0.5%; increasing the detergent concentration caused a steady increase in both kcat and Km up to a concentration of 1% (FIGS. 19A-C). The pH dependence of the hydrolysis activity was also investigated. As expected, the maximal kcat/Km is observed around pH 5 (FIG. 20).

Where [1] appears, read: substrate 2,4-dinitrophenyl lactoside.

B1: Rhodococcus M-777 EGC: wild-type endoglycoceramidase from Rhodococcus sp. M-777, GenBank AAB67050, SEQ ID NO:3 (protein, listed as Rhodococcus sp.)
chain: MRRTRLVSLIVTGSLVFGGGVAAAQSSLAASGSGSGSGTALTPSYLKDDDGRSLILRGFNTASSAKSAPDGMPQFTEADLAREYADMGTNFVRFLISWRSVEPAPGVYDQQYLDRVEDRVGWYAERGYKVMLDMHQDVYSGAITPEGNSGNGAGAIGNGAPAWATYMDGLPVEPQPRWELYYIQPGVMRAFDNFWNTTGKHPELVEHYAKAWRAVADRFADNDAVVAYDLMNEPFGGSLQGPAFEAGPLAAMYQRTTDAIRQVDQDTWVCVAPQAIGVNQGLPSGLTKIDDPRAGQQRIAYCPHLYPLPLDIGDGHEGLARTLTDVTIDAWRANTAHTARVLGDVPIILGEFGLDTTLPGARDYIERVYGTAREMGAGVSYWSSDPGPWGPYLPDGTQTLLVDTLNKPYPRAVAGTPTEWSSTSDRLQLTIEPDAAITAPTEIYLPEAGFPGDVHVEGADVVGWDRQSRLLTVRTPADSGNVTVTVTPAA
Take B1: the rate of hydrolysis entry (in the absence of detergent) is reported as “very low”. The “pH of maximal kcat/Km” value (pH dependence of the hydrolysis activity) was about 5 pH. Besides, under setting [1], the Michaelis-Menten constant (Km) (as a rule, the concentration of substrate that gives half-maximal velocity) is about 2000 µM; the kcat (commonly the number of substrate molecules converted per active site and unit of time at saturation) was 1.5 s⁻¹.
